The target in the data set is SARS-CoV-2 N protein C-terminal domain (NCTD) (SARS-CoV-2, UniProt P0DTC9 256-364). Put plainly: EMSA; […]; binding buffer not stated ([…]. As to conditions: protein: recombinant; tags: N-terminal His6-TEV site (pET28a); chain copies: 2; label: 5' IRDye-800CW.

One may read the Kd as the free concentration of one partner at which half of the binding sites on the other are occupied at equilibrium, for simple one-to-one binding. Consider CGGUUUCUCCG (ssRNA) [Oligo-U (SL5a G to U)], for which the Kd is 140 ± 29 nM.

The values above are taken from article PMC9288159, “Identification of a guanine-specific pocket in the protein N of SARS-CoV-2”.
